Source: patent publication US20130289246A1
Like-named read-outs stand apart in the source and are kept apart here.

B1: mAb 4K8 (antibody, V domains shown)
VH: EVQLVESGGGLVQPGGSLRLSCAASEFNFKSYWMTWVRQAPGKGLEWVANINQDGSEKNYVDSVKGRFTISRDNAKNSLHLQMSSLRVDDTAVYYCARTGSSWDTYYYYYAMDVWGQGTTVTVS
VL: DIQLTQSPVSLSLSPGERATLSCRASQSVSSSYLVWYQQKPGQAPRLLIYGASSRAPGIPDRFSGSGSGTDFTLTISRLEREDFAVYYCQQYGRSFGQGTKVEIKR
B2: mAb 6D9 (antibody, V domains shown)
VH: EVQLVESGGGLVQPGGSLRLSCAASGFIFESYWMTWVRQAPGKGLEWVANIKQDGSEKNYVDSVKGRFTISRDNAKTSLYLQMNSLRAEDTAMYYCARSGSNWDTYYYYYGMDVWGQGTTVTVS
VL: EIVLTQSPGTLSLSPGERATLSCRASQSVDSNYLGWYQQRPGQAPRLLIYGASSRATGVPDRFSASGSGTDFTLSISRLEPEDFAVYYCQQYGSSFGQGTKVEIKR
B3: mAb 6J24 (antibody, V domains shown)
VH: EVQLVESGGGLVQPGRSLRLSCVGSGFNFDGYAMQWVRQVPGKGLEWVSGISWHSDSTGYADSVRGRFTISRDNAKNSLYLQMDSLRPEDTAFYYCGKSIGHVGGSYRHPIDYWGQGTLVTVS
VL: DIQLTQSPSSLSASVGDRVTITCRASQGITDYLAWYQQKPGTIPKLLIYAASTLQSGVPSRFSGGGYGTDFTLTISSLQPEDVATYYCQKYNSAPLTFGGGTKVEIKR
B4: mAb 5I17 (antibody, V domains shown)
VH: EVQLVESGGGVVQPGRSLRLSCAASGFSFSNYAMHWVRQAPGKGLEWVALISFDGSDKYYADSVKGRFTMSRDNSKNTLYLQMNSLRAEDTAVYYCARDEPYCGGDCFAFDVWGQGTMVTVS
VL: DIQLTQSPSSLSASAGDRVSMTCRASQIISSSLNWYQQKPGKAPKLLIYAASNLQSGVPSRFSGSGSGTDFTLTISSLQPEDFATYYCQQSYSTPPELTFGGGTKVDIKR
B5: mAb 3N6 (recombinant) (antibody, V domains shown)
VH: QVQLQESGPGLVKPSETLSLTCSVSGGSINYYYWSWIRQPPGKGLECIGYISDTGRTYYNPSLRSRVTISVDTSKNQFSLNLTSMTAADTAVYYCARDPTGSRQKNAFDMWGQGTMVTVS
VL: AIQMTQSPSSLSASVGDRVTITCRASQNIRSYLNWYQQKPGKAPNLLIYGTTSLESGVPSRFSGSGSGTDFTLTISSLQPEDFATYYCQQSYHTPQTFGQGTKVEIKR

What was measured:
[1] = biological target: HA of A/Brisbane/59/2007 (H1N1) virus (Influenza A virus (H1N1)); assay: cell-based or functional assay
[2] = biological target: HA of A/California/04/2009 (H1N1) virus (Influenza A virus (H1N1)); assay: cell-based or functional assay
[3] = biological target: HA of A/L3/1947 (H1N1) virus (Influenza A virus (H1N1)); assay: cell-based or functional assay
[4] = biological target: HA of A/New Caledonia/20/1999 (H1N1) virus (Influenza A virus (H1N1)); assay: cell-based or functional assay
[5] = biological target: HA of A/New Jersey/11/1976 (H1N1) virus (Influenza A virus (H1N1)); assay: cell-based or functional assay
[6] = biological target: HA of A/South Carolina/1/1918 (H1N1), wild type, on VLP (Influenza A virus A/South Carolina/1/1918 (H1N1)) (UniProt Q9WFX3); assay: cell-based or functional assay
[7] = biological target: HA of A/USSR/92/1977 (H1N1) virus (Influenza A virus (H1N1)); assay: cell-based or functional assay
[8] = biological target: HA of A/Weiss/1943 (H1N1) virus (Influenza A virus (H1N1)); assay: cell-based or functional assay
[9] = biological target: HA of A/swine/Iowa/15/1930 (H1N1) virus (Influenza A virus (H1N1)); assay: cell-based or functional assay
[10] = biological target: recombinant soluble 1957 H2 HA (A/Japan/305+/1957) (Influenza A virus A/Japan/305+/1957 (H2N2)); assay: ELISA, supernate; also: test concentration or dose not given here
[11] = biological target: recombinant soluble trimeric 2009 H1 HA (A/California/04/2009, wild type) (Influenza A virus A/California/04/2009 (H1N1)); assay: ELISA, supernate; also: test concentration or dose not given here
[12] = biological target: soluble 1999 H1 HA (seasonal 1999 H1N1) (Influenza A virus (H1N1, 1999)); assay: ELISA, supernate; also: test concentration or dose not given here
[13] = biological target: soluble 2004 H5 HA (Influenza A virus (H5N1, 2004)); assay: ELISA, supernate; also: test concentration or dose not given here
[14] = biological target: 1997 H6N1 HA (Influenza A virus (H6N1, 1997)); assay: ELISA, supernate
[15] = biological target: 1997 H9N2 HA (Influenza A virus (H9N2, 1997)); assay: ELISA, supernate
[16] = biological target: recombinant soluble 1957 H2 HA (A/Japan/305+/1957) (Influenza A virus A/Japan/305+/1957 (H2N2)); assay: ELISA, supernate; remark: listed apart in the source; also: test concentration or dose not given here
[17] = biological target: recombinant soluble trimeric 2009 H1 HA (A/California/04/2009, wild type) (Influenza A virus A/California/04/2009 (H1N1)); assay: ELISA, supernate; remark: listed apart in the source; also: test concentration or dose not given here
[18] = biological target: soluble 1999 H1 HA (seasonal 1999 H1N1) (Influenza A virus (H1N1, 1999)); assay: ELISA, supernate; remark: listed apart in the source; also: test concentration or dose not given here
[19] = biological target: soluble 2004 H5 HA (Influenza A virus (H5N1, 2004)); assay: ELISA, supernate; remark: listed apart in the source; also: test concentration or dose not given here
[20] = biological target: recombinant soluble 1968 H3 HA (A/Aichi/2/1968) (Influenza A virus A/Aichi/2/1968 (H3N2)) (UniProt P03437); assay: ELISA, supernate
[21] = biological target: recombinant soluble trimeric 1918 H1 HA (A/South Carolina/1/1918, wild type) (Influenza A virus A/South Carolina/1/1918 (H1N1)) (UniProt Q9WFX3); assay: ELISA, supernate
[22] = biological target: recombinant soluble 1968 H3 HA (A/Aichi/2/1968) (Influenza A virus A/Aichi/2/1968 (H3N2)) (UniProt P03437); assay: ELISA, supernate; remark: listed apart in the source
[23] = biological target: recombinant soluble trimeric 1918 H1 HA (A/South Carolina/1/1918, wild type) (Influenza A virus A/South Carolina/1/1918 (H1N1)) (UniProt Q9WFX3); assay: ELISA, supernate; remark: listed apart in the source
[24] = biological target: recombinant soluble 1957 H2 HA (A/Japan/305+/1957) (Influenza A virus A/Japan/305+/1957 (H2N2)); assay: ELISA, recombinant mAb
[25] = biological target: recombinant soluble trimeric 2009 H1 HA (A/California/04/2009, wild type) (Influenza A virus A/California/04/2009 (H1N1)); assay: ELISA, recombinant mAb
[26] = biological target: soluble 1999 H1 HA (seasonal 1999 H1N1) (Influenza A virus (H1N1, 1999)); assay: ELISA, recombinant mAb
[27] = biological target: soluble 2004 H5 HA (Influenza A virus (H5N1, 2004)); assay: ELISA, recombinant mAb
[28] = biological target: 1997 H6N1 HA (Influenza A virus (H6N1, 1997)); assay: ELISA, recombinant mAb
[29] = biological target: 1997 H9N2 HA (Influenza A virus (H9N2, 1997)); assay: ELISA, recombinant mAb
[30] = biological target: recombinant soluble 1957 H2 HA (A/Japan/305+/1957) (Influenza A virus A/Japan/305+/1957 (H2N2)); assay: ELISA, recombinant mAb; remark: listed apart in the source
[31] = biological target: recombinant soluble trimeric 2009 H1 HA (A/California/04/2009, wild type) (Influenza A virus A/California/04/2009 (H1N1)); assay: ELISA, recombinant mAb; remark: listed apart in the source
[32] = biological target: soluble 1999 H1 HA (seasonal 1999 H1N1) (Influenza A virus (H1N1, 1999)); assay: ELISA, recombinant mAb; remark: listed apart in the source
[33] = biological target: soluble 2004 H5 HA (Influenza A virus (H5N1, 2004)); assay: ELISA, recombinant mAb; remark: listed apart in the source

Row | Binder | HAI activity [1] | HAI activity [2] | HAI activity [3] | HAI activity [4] | HAI activity [5] | HAI activity [6] | HAI activity [7] | HAI activity [8] | HAI activity [9] | OD [10] | OD [11] | OD [12] | OD [13] | OD [14] | OD [15] | OD [16] | OD [17] | OD [18] | OD [19] | other results
1 | B1 | > 20 µg/mL | < 0.01 µg/mL | > 20 µg/mL | > 20 µg/mL | 0.16 µg/mL | < 0.01 µg/mL | 0.32 µg/mL | > 20 µg/mL | < 0.01 µg/mL | – | – | – | – | – | – | – | – | – | – | –
2 | B2 | > 20 µg/mL | 0.7 µg/mL | > 20 µg/mL | > 20 µg/mL | 1.3 µg/mL | 0.2 µg/mL | 2.5 µg/mL | > 20 µg/mL | 0.4 µg/mL | – | – | – | – | – | – | – | – | – | – | –
3 | B3 | – | – | – | – | – | – | – | – | – | 0.219 OD | 0.981 OD | 0.183 OD | 0.379 OD | 0.163 OD | 0.075 OD | 0.097 OD | 0.102 OD | 0.083 OD | 0.182 OD | –
4 | B4 | – | – | – | – | – | – | – | – | – | 0.85 OD | 0.668 OD | 1.93 OD | 1.55 OD | 0.11 OD | 1.98 OD | 1.38 OD | 0.566 OD | 1.19 OD | 1.17 OD | OD [20]: 0.267 OD; OD [21]: 0.495 OD; OD [22]: 0.156 OD; OD [23]: 0.522 OD
5 | B5 | – | – | – | – | – | – | – | – | – | – | – | – | – | – | – | – | – | – | – | OD [24]: 0.57 OD; OD [25]: 1.03 OD; OD [26]: 0.909 OD; OD [27]: 2.03 OD; OD [28]: 0.23 OD; OD [29]: 0.084 OD; OD [30]: 0.801 OD; OD [31]: 2.69 OD; OD [32]: 1.49 OD; OD [33]: 3.07 OD
